In article PMC12572195 (Nature Communications, 2025):

Biological target: SPT6 (human, UniProt Q7KZ85 1-1726)
Assay: cell-based or functional assay

co-transcriptional methylation assay (3H activity) with SETD2 Construct 4 (includes the complete SBR, lacks the SRI domain): ~50 % of WT
B1: SETD2 (residues 1446-2564) (domain or fragment)
chain: GPSCVMDDFRDPQRWKECAKQGKMPCYFDLIEENVYLTERKKNKSHRDIKRMQCECTPLSKDERAQGEIACGEDCLNRLLMIECSSRCPNGDYCSNRRFQRKQHADVEVILTEKKGWGLRAAKDLPSNTFVLEYCGEVLDHKEFKARVKEYARNKNIHYYFMALKNDEIIDATQKGNCSRFMNHSCEPNCETQKWTVNGQLRVGFFTTKLVPSGSELTFDYQFQRYGKEAQKCFCGSANCRGYLGGENRVSIRAAGGKMKKERSRKKDSVDGELEALMENGEGLSDKNQVLSLSRLMVRIETLEQKLTCLELIQNTHSQSCLKSFLERHGLSLLWIWMAELGDGRESNQKLQEEIIKTLEHLPIPTKNMLEESKVLPIIQRWSQTKTAVPPLSEGDGYSSENTSRAHTPLNTPDPSTKLSTEADTDTPKKLMFRRLKIISENSMDSAISDATSELEGKDGKEDLDQLENVPVEEEEELQSQQLLPQQLPECKVDSETNIEASKLPTSEPEADAEIEPKESNGTKLEEPINEETPSQDEEEGVSDVESERSQEQPDKTVDISDLATKLLDSWKDLKEVYRIPKKSQTEKENTTTERGRDAVGFRDQTPAPKTPNRSRERDPDKQTQNKEKRKRRSSLSPPSSAYERGTKRPDDRYDTPTSKKKVRIKDRNKLSTEERRKLFEQEVAQREAQKQQQQMQNLGMTSPLPYDSLGYNAPHHPFAGYPPGYPMQAYVDPSNPNAGKVLLPTPSMDPVCSPAPYDHAQPLVGHSTEPLSAPPPVPVVPHVAAPVEVSSSQYVAQSDGVVHQDSSVAVLPVPAPGPVQGQNYSVWDSNQQSVSVQQQYSPAQSQATIYYQGQTCPTVYGVTSPYSQTTPPIVQSYAQPSLQYIQGQQIFTAHPQGVVVQPAAAVTTIVAPGQPQPLQPSEMVVTNNLLDLPPPSPPKPKTIVLPPNWKTARDPEGKIYYYHVITRQTQWDPPTWESPGDDASLEHEAEMDLGTPTYDENPMKASKKPKTAEADTSSELAKKSKEVFRKEMSQFIVQCLNPYRKPDCKVGRITTTEDFKHLARKLTHGVMNKELKYCKNPEDLECNENVKHKTKEYIKKYMQKFGAVYKPKEDTELE
